Results published in the supplement of paper PMC10201428.
± gives the standard deviation of the averaged measurements.

B1: library; a variant is named by its letters at N, in order (parent)
chain: ACATTTGTTGATACAACCATAAAATGATAATTACACCCATAAATTGATAATTATCACACCCANNNNNNNNNNNNNNCTCTGATCATAGTCAGACCAACATTGCTACGACCCGTATTCGCACCGACAC

Tests used:
[1] = variants of: B1; assay: relative integration efficiency (T-RL orientation) vs wild-type transposon end (log2 (normalized fold change)); transposon end mutated: right end (5 bp flank + 75 bp right end); higher = more efficient transposition; conditions: with VchCAST RNA-guided transposition machinery (E. coli BL21(DE3) host, lacZ target)
Outline: (§1)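 Barcoded pools of 1549 left-end or 1849 right-end transposon variants were cloned into a pUC57 mini-transposon donor. Each pool was co-transformed with a T7-driven effector plasmid (CRISPR array, tniQ-cas8-cas7-cas6, tnsA-tnsB-tnsC) into E. coli BL21(DE3) and plated with 0.1 mM IPTG at 37°C for 18 h. Input plasmids and genomic integration junctions were PCR-amplified and Illumina-sequenced, with two biological output replicates and four wild-type barcodes as reference. Relative integration efficiency is output/input barcode abundance fold change, normalised to wild-type barcodes and log-transformed.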

[2] = variants of: B1; assay: relative integration efficiency (T-LR orientation) vs wild-type transposon end (log2 (normalized fold change)); transposon end mutated: right end (5 bp flank + 75 bp right end); higher = more efficient transposition; conditions: with VchCAST RNA-guided transposition machinery (E. coli BL21(DE3) host, lacZ target)
Outline: as §1

Variant | relative integration efficiency (log2) [1] | relative integration efficiency (log2) [2]
ATTTAACTATAACG G10T | -1.54 ± 0.43 | 0.15 ± 0.026
ATTTAACTATAACG G26A | -1.27 ± 0.28 | 2.69 ± 0.084
ATTTAACTATAACG G26C | -2.84 ± 0.47 | 1.17 ± 0.16
ATTTAACTATAACG G26T | -1.75 ± 0.32 | 2.24 ± 0.073
ATTTAACTATAACG G46A | -1.36 ± 0.26 | 2.007 ± 0.0045
ATTTAACTATAACG G46C | -1.79 ± 0.26 | 1.05 ± 0.12
ATTTAACTATAACG G46T | -1.25 ± 0.4 | 1.87 ± 0.23
ATTTAACTATAACG T6A | -6.98 ± 0.9 | -4.12 ± 0.43
ATTTAACTATAACG T6G | -6.3 ± 0.14 | -5.38 ± 0.28
ATTTAACTATAACG T8A | -1.56 ± 0.29 | 0.918 ± 0.079
ATTTAACTATAACG T8C | -1.8 ± 0.42 | -0.0325 ± 0.43
ATTTAACTATAACG T8G | -6.07 ± 0.37 | -5.36 ± 1.4
ATTTAACTATAACG T9A | -0.86 ± 0.087 | 2.15 ± 0.18
ATTTAACTATAACG T9C | -0.756 ± 0.26 | 2.493 ± 0.0031
ATTTAACTATAACG T9G | -0.534 ± 0.082 | 2.39 ± 0.12
ATTTAACTATAACG T12A | -0.998 ± 0.097 | 2.03 ± 0.032
ATTTAACTATAACG T12G | -0.699 ± 0.2 | 1.76 ± 0.15
ATTTAACTATAACG T20A | -1.07 ± 0.11 | 2.04 ± 0.098
ATTTAACTATAACG T20C | -1.47 ± 0.3 | 1.3 ± 0.48
ATTTAACTATAACG T20G | -2 ± 0.4 | 0.721 ± 0.045
ATTTAACTATAACG T25A | -1.13 ± 0.11 | 2.26 ± 0.046
ATTTAACTATAACG T25C | -1.07 ± 0.25 | 2.2 ± 0.17
ATTTAACTATAACG T25G | -1.44 ± 0.3 | 1.851 ± 0.01
ATTTAACTATAACG T28C | -1.29 ± 0.26 | 2.16 ± 0.037
ATTTAACTATAACG T28G | -1.52 ± 0.28 | 1.89 ± 0.21

Variant | relative integration efficiency (log2) [1] | relative integration efficiency (log2) [2]
ATTTAACTATAACG T31A | -1.32 ± 0.36 | 2.39 ± 0.16
ATTTAACTATAACG T31C | -0.932 ± 0.22 | 2.62 ± 0.071
ATTTAACTATAACG T31G | -1.44 ± 0.31 | 2.54 ± 0.17
ATTTAACTATAACG T32A | -1.5 ± 0.28 | 2.13 ± 0.036
ATTTAACTATAACG T32G | -1.87 ± 0.28 | 2.2 ± 0.18
ATTTAACTATAACG T40A | -1.01 ± 0.19 | 1.82 ± 0.13
ATTTAACTATAACG T40C | -1.72 ± 0.32 | 1.196 ± 0.0054
ATTTAACTATAACG T40G | -2.18 ± 0.11 | 0.496 ± 0.47
ATTTAACTATAACG T44A | -0.682 ± 0.22 | 2.32 ± 0.13
ATTTAACTATAACG T44C | -0.948 ± 0.24 | 2.28 ± 0.14
ATTTAACTATAACG T44G | -0.646 ± 0.027 | 2.17 ± 0.033
ATTTAACTATAACG T45A | -1.14 ± 0.22 | 1.93 ± 0.065
ATTTAACTATAACG T45G | -1.16 ± 0.28 | 1.56 ± 0.031
ATTTAACTATAACG T48C | -1.24 ± 0.25 | 2.03 ± 0.086
ATTTAACTATAACG T48G | -1.18 ± 0.2 | 1.85 ± 0.083
ATTTAACTATAACG T51A | -1.46 ± 0.28 | 2.29 ± 0.1
ATTTAACTATAACG T51C | -1.04 ± 0.24 | 2.48 ± 0.17
ATTTAACTATAACG T51G | -1.67 ± 0.15 | 2.1 ± 0.14
ATTTAACTATAACG T52A | -1.26 ± 0.2 | 2.3 ± 0.12
ATTTAACTATAACG T52G | -1.31 ± 0.41 | 2.29 ± 0.27
ATTTAACTATAACG T54A | -1.14 ± 0.19 | 2.49 ± 0.12
ATTTAACTATAACG T54C | -1.04 ± 0.22 | 2.37 ± 0.24
ATTTAACTATAACG T54G | -1.12 ± 0.37 | 2.49 ± 0.13
TTTTATGATATTGC | -0.0751 ± 0.044 | 0.744 ± 0.14
ATTTTTGATATTGC | -0.244 ± 0.095 | 1.64 ± 0.1
